Tests used:
Conditions in all cases: both partners purified
FtsQ_(50–276) [1] = target: T1, FtsQ_(50–276) (E. coli, UniProt P06136 50-276); assay: SEC; analytical gel filtration, Superdex 200 10/300 GL, buffer B (20 mM Tris-HCl pH 8.0, 200 mM NaCl), 0.5 mL/min; high concentrations (101–370 μM); apparent Stokes radius compared with radii calculated from models
T1 construct: pET21a; also called periplasmic domain of FtsQ; WT FtsQ; source: for the complexes purified together with its partners from mixed cell pellets
T1 sequence (P06136 50-276): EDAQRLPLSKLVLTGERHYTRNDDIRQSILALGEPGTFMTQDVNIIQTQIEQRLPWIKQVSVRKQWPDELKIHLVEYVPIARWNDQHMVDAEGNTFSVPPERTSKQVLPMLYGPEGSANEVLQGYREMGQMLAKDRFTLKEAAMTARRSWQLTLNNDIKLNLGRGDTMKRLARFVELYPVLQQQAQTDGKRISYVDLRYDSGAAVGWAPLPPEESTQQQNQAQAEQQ

FtsQ_(50–276) [2] = target: T1, FtsQ_(50–276); assay: BLI; BLItz; GST-fused FtsB proteins or GST-e5-FtsB/k5-FtsL complexes immobilised on AR2G biosensor by amine coupling; FtsQ_(50–276) (WT or Y248A) in solution, 0.1–80 μM; running buffer 20 mM Tris-HCl pH 8.0, 200 mM NaCl; equilibrium analysis of points at 100 s
e5-FtsB_(25–103) = target: T2, e5-FtsB_(25–103) (E. coli, UniProt P0A6S5 25-103); assay: SEC; analytical gel filtration, Superdex 200 10/300 GL, buffer B (20 mM Tris-HCl pH 8.0, 200 mM NaCl), 0.5 mL/min; high concentrations (101–370 μM); apparent Stokes radius compared with radii calculated from models
T2 chain: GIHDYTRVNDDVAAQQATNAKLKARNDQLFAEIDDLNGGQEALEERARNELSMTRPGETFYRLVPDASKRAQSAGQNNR

Row | Binder | Kd (FtsQ_(50–276) [2]) [nM] | further results
1 | FtsB_(25–103) L46P (domain or fragment, E. coli, UniProt P0A6S5 25-103, looked up, also called FtsQB L46P mutant) GIHDYTRVNDDVAAQQATNAKPKARNDQLFAEIDDLNGGQEALEERARNELSMTRPGETFYRLVPDASKRAQSAGQNNR | – | binding result (FtsQ_(50–276) [1]): binds
2 | GST-fused FtsB_(25–103) (domain or fragment, E. coli, UniProt P0A6S5 25-103, looked up, pGST2; source: E. coli BL21 (DE3), purified (glutathione-Sepharose, gel filtration); not shown: GST, N-terminal, kept) GIHDYTRVNDDVAAQQATNAKLKARNDQLFAEIDDLNGGQEALEERARNELSMTRPGETFYRLVPDASKRAQSAGQNNR | 670 | –
3 | NGGQEALEERARNELSMTRPGETFYRLVPDASKRAQSAGQNNR (domain or fragment, E. coli, UniProt P0A6S5 61-103, looked up, pGST2; source: E. coli BL21 (DE3), purified (glutathione-Sepharose, gel filtration); not shown: GST, N-terminal, kept) [GST-fused FtsB_(61–103)] | 900 | –
4 | k5-FtsL_(64–121) (domain or fragment) TAQREQLVLERDALDIEWRNLILEENALGDHSRVERIATEKLQMQHVDPSQENIVVQK | – | stoichiometry N (e5-FtsB_(25–103)): 1 FtsB:FtsL ratio (2:2)

— PMC6305486, “Structural Insights into the FtsQ/FtsB/FtsL Complex, a Key Component of the Divisome” (Scientific Reports, 2018)
